Reference: PMC8304084, “A Concerted Action of UBA5 C-Terminal Unstructured Regions Is Important for Transfer of Activated UFM1 to UFC1” (International Journal of Molecular Sciences, 2021)
Where two headings read alike, the source gives them in different places.

Experiments:
UFC1 = biological target: T1, UFC1 (Homo sapiens, UniProt Q9Y3C8); experiment: In vitro thioester formation (ufmylation) assay, UFC1~UFM1 conjugate; assay type: biochemical; conditions: 70 µM UFM1, 20 µM UFC1, 20 µM UBA5 construct, 1 mM ATP, 50 mM HEPES pH 7.5, 22 °C
T1 construct: Full length UFC1, residues 1–167; modified ubiquitin tag (Ub19) with TEV site (N, cleaved yes); made in house; host or cells: E. coli T7 Express
T1 sequence (Q9Y3C8 1-167): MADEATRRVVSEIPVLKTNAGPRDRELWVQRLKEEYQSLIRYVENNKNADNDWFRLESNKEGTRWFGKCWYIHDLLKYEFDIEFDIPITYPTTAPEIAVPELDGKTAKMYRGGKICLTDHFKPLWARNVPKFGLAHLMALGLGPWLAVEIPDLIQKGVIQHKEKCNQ
Experimental: First, we analyzed the effect of the UBA5 C-terminus on UFM1 transfer to UFC1 with an in vitro thioester formation assay (Figure 1B–E).
Ufmylation reaction assays were adopted from work of Xie. Briefly, 70 µM UFM1, 20 µM UFC1 and 20 µM of different UBA5 constructs were mixed in reaction buffer (50 mM HEPES pH = 7.5, 100 mM NaCl, 5 mM MgCl2). After starting the reaction with addition of 1 mM ATP, the reaction mix was incubated at 22 °C for the desired time. To quench the reaction and prepare electrophoretic samples, 1 µL of the reaction mix was added to 99 µL 1x non-reducing SDS loading buffer and frozen in liquid nitrogen. Sample content was visualized by sodium dodecyl sulfate polyacrylamide gel electrophoresis (SDS-PAGE). The transfer to polyvinylidene difluoride (PVDF) membrane was performed via a Trans-Blot® Turbo™ Transfer System (Bio-Rad, München, Germany). After transfer the membrane was blocked with TBST (Tris-buffered saline with Tween20 buffer, 20 mM Tris, 150 mM NaCl and 0.1% TWEEN 20) containing 5% w/v nonfat dry milk for 1 h, followed by α-UFC1 antibody incubation over night at 4 °C (ab189251 abcam, 1:10,000 in TBST containing 5% w/v nonfat dry milk). After washing with TBST the membrane was incubated with secondary antibody (anti-rabbit-HRP) for 1 h at RT and again washed with TBST. […] For quantification of UFC1 ufmylation coloc2 software implemented in ImageJ was used.

UBA5 [1] = conditions: cited from earlier work
Text: Another conserved region in UBA5 is located at it very C-terminus (R3, residues 393–404) and is predicted to have a helical conformation. […] UFC1, the only known E2 enzyme for UFM1, was characterized structurally a few years after discovery of the UFM1 cascade. […] In our structure we observed that the UFC1 K33 sidechain forms an intermolecular hydrogen bond with the UBA5 D389 sidechain (Figure 3F). In contrast, UFC1 Q31 is not in contact with any of the UBA5 R3 residue and could not affect the UBA5:UFC1 interaction.

UBA5 [2] = conditions: in vitro; cited from earlier work
Text: The UBA5 C-terminal part (Figure 1A) plays a complex regulatory role, consisting of a few conserved regions that mediate interaction of UBA5 with other key players in the ufmylation cascade. The first sequence is a conserved region (R1, residues 334–348), interacting with UFM1 [10, 29, 30, 31, 32] and also with LC3/GABARAP proteins. This region (called LIR/UFIM by its dual nature) is important for the initial binding of UFM1 to UBA5 [10, 29, 31, 32] and for the following UFM1 activation in a trans-fashion. Trans-activation means that UBA5 forms an active ho ...

B1: AD^1–330: UBA5 adenylation domain, residues 1–330 (protein, UniProt Q9GZZ9 1-330, looked up, fragment)
chain: MAESVERLQQRVQELERELAQERSLQVPRSGDGGGGRVRIEKMSSEVVDSNPYSRLMALKRMGIVSDYEKIRTFAVAIVGVGGVGSVTAEMLTRCGIGKLLLFDYDKVELANMNRLFFQPHQAGLSKVQAAEHTLRNINPDVLFEVHNYNITTVENFQHFMDRISNGGLEEGKPVDLVLSCVDNFEARMTINTACNELGQTWMESGVSENAVSGHIQLIIPGESACFACAPPLVVAANIDEKTLKREGVCAASLPTTMGVVAGILVQNVLKFLLNFGTVSFYLGYNAMQDFFPTMSMKPNPQCDDRNCRKQQEEYKKKVAALPKQEVIQE
modifications: adenylation domain
UFC1; 7 h
  UFC1~UFM1 conjugation: 80%
UFC1; within 30 min, Western blot, triplicates
  UFC1 conjugated to UFM1 (UFC1~UFM1): less than 5%

B2: UFC1 K33A: UFC1 K33A mutation, literature (protein, UniProt Q9Y3C8 1-167, looked up, variant K33A)
Ubiquitin-fold …: MADEATRRVVSEIPVLKTNAGPRDRELWVQRLAEEYQSLIRYVENNKNADNDWFRLESNKEGTRWFGKCWYIHDLLKYEFDIEFDIPITYPTTAPEIAVPELDGKTAKMYRGGKICLTDHFKPLWARNVPKFGLAHLMALGLGPWLAVEIPDLIQKGVIQHKEKCNQ
UBA5 [1]
  effect of UFC1 mutation on UBA5 binding and UFM1 transfer: significantly reduces both UBA5 binding and UFM1 transfer from UBA5 to UFC1
UBA5 [1]; listed as K33A
  effect of UFC1 mutation on UBA5 binding and UFM1 transfer: impaired UBA5 binding and UFM1 transfer to UFC1

B3: GABARAP: GABARAP, residues 3–116 (protein)
chain: GAMFVYKEEHPFEKRRSEGEKIRKKYPDRVPVIVEKAPKARIGDLDKKKYLVPSDLTVGQFYFLIRKRIHLRAEDALFFFVNNVIPPTSATMGQLYQEHHEEDFFLYIAYSDESVYG
modifications: left off: modified ubiquitin tag (Ub19), N-terminal, cleaved
UBA5 [2]
  effect on UFM1 binding to UBA5: inhibit UFM1 binding to UBA5
